This note sets out measurements from patent US20060063228A1 (Pfizer, published 2006).

Positions count from the first letter of the chain named. Numbers in names are those of the source.

Assay [1] concerns the target T1, recombinant human IL-13 (human, UniProt P35225 34-146).
T1 construct: also called biotinylated IL-13; rec human IL-13
Description: competition ELISA; competitor mAb13.2. (ELISA stands for enzyme-linked immunosorbent assay.)

Assay [2] has as its target T2, FLAG-human IL-13 (human, UniProt P35225 34-146).
T2 construct: Captured on ELISA plates by anti-FLAG M2 antibody; order of tag and IL-13 is not certain; also called IL-13-FLAG; human IL-13-FLAG; not shown: FLAG tag
Put plainly: competition ELISA; IL-13-FLAG immobilized with anti-FLAG antibody, detected with biotinylated mAb13.2; unlabeled antibody varied.

The target in assay [3] is T1, recombinant human IL-13. Put plainly: Biacore; h13.2v2 immobilized on the chip, dose range of human IL-13 passed over.
Assay [4] concerns the target T3, IL-13 captured by IL-13Rα2 on the surface of A375 human melanoma cells (human, UniProt Q14627 27-380).
T3 construct: whole, on cells; Recombinant human IL-13 (3 ng/ml, or 10 ng/ml for ADCC) contacted to A375 cells; also called IL-13-loaded A375 cells; cells expressing IL-13Rα2
Description: flow cytometry; A375 cells pre-incubated with 3 ng/ml hu IL13, stained with biotinylated h13.2v2. From the text: The cell signaling form of the IL-13 receptor, which includes the IL-13Rα1 and IL-4Rα polypeptides, is found on the surface of cell types that respond to the cytokine. IL-13Rα2 is not typically expressed on the surface of IL-13-responsive cells, but has been reported on tumors of the brain, head, and neck (Kawakami et al. (2003) Clin. Cancer Res. 9:6381-8; Mintz et al. (2002) Neoplasia 4:388-99; Liu et al. (2000) Cancer Immunol. Immunother. 49:319-24). IL-13Rα2 expression may also be induced on IFNγ-treated primary human monocytes (Daines et al. (2002) J. Biol. Chem. 277:10387-93), or TNFα- or IL-13-treated primary human fibroblasts (Yoshikawa et al. (2003) Biochem. Biophys. Res. Commun. 312:1248-55). This receptor is not competent to mediate signaling responses to IL-13 (Kawakami et al. (2001) Blood 97:2673-9), but instead appears to act as a decoy receptor, competing for productive IL-13 interactions with IL-13Rα1 (Feng et al. (1998) Lab. Invest. 78:591-602). IL-13Rα2 has a high affinity for IL-13 (Andrews et al. (2002) J. Biol. Chem. 277:46073-8), and appears to interact primarily with the C-terminal region of the cytokine (Madhankumar et al. (2002) J. Biol. Chem. 277:43194-205), which is not predicted to include the h13.2v2 binding site. Therefore, it was examined whether h13.2v2 could interact with IL-13 captured by IL-13Rα2 on the cell surface. […]

Assay [5] has as its target T1, recombinant human IL-13. Put plainly: cell-based or functional assay.
Assay [6] has as its target T1, recombinant human IL-13. Put plainly: Biacore; mAb13.2 immobilized on the chip, dose range of human IL-13 passed over. The method, then:
(§1) Several measures were taken to confirm that the murine monoclonal antibody isolated in Example 1.1, i.e., mAb13.2, binds with high affinity and specificity to human IL-13. First, BIACORE™ analyses of three monoclonal antibodies to human IL-13 (mAb13.2, mAb13.4, and mAb13.9) were performed using a 69 RU streptavidin chip to which biotinylated IL-13 had been immobilized. […] Upon buffer exchange, dissociation was slow (FIG. 1). Second, BIACORE™ analysis of mAb13.2 was performed using a Biacore chip to which mAb13.2 had been immobilized. Different concentrations of IL-13 were passed over the chip. Again, rapid binding and slow dissociation was shown (FIG. 2). Third, analysis by ELISA determined that mAb13.2 bound to all forms of human IL-13 tested, including native IL-13 derived from cord blood T cells (FIG. 3). Plates were coated with anti-FLAG™ M2 antibody. The binding of FLAG™-human IL-13 was detected with biotinylated mAb13.2 and streptavidin-peroxidase. […] There was no detectable binding of mAb13.2 to recombinant murine IL-13 (FIG. 3). To confirm the results found by ELISA, the monoclonal antibody, mAb13.2, was coated onto a Biacore chip, and solutions containing recombinant human IL-13 or a polymorphic form of IL-13 (ARG variant), which is expressed at high frequency in patients suffering from asthma (Heinzmann et al. (2000) Hum. Mol. Genet. 9:594), were passed over the chip.
(In general: In SPR one partner is held on a chip, and binding of the other changes the refractive index at the surface.)

In assay [7] the target is T1, recombinant human IL-13. Put plainly: Biacore; biotinylated IL-13 immobilized on a 69 RU streptavidin (SA) chip, antibody passed over the chip. The method, then: as §1
Assay [8] addresses T2, FLAG-human IL-13. Put plainly: competition ELISA; human IL-13-FLAG immobilized with anti-FLAG antibody, detected with biotinylated mAb13.2; unlabeled antibody varied. The method, then:
The chimeric antibody, ch13.2, was tested for IL-13 binding. […] Chimeric antibody, ch13.2, was able to competitively bind to IL-13 similarly to mAb13.2 (FIG. 14A). In another test, human peripheral blood monocytes were treated overnight with IL-13 to induce CD23 expression in the presence of various concentrations of mouse mAb13.2 or ch13.2.

A further assay addresses T4, recombinant murine IL-13 (murine, UniProt P20109 19-131, limits assumed).
T4 sequence (looked up): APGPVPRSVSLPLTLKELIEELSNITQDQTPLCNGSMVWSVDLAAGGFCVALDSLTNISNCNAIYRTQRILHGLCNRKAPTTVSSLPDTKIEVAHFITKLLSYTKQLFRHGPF
Put plainly: competition ELISA; FLAG-human IL-13 captured on anti-FLAG M2 plates and detected with biotinylated mAb13.2 and streptavidin-peroxidase; soluble IL-13 added as competitor of FLAG-human IL-13. The method, then: as §1

T1 sequence (P35225 other isoform, or with tags, fused parts or gaps): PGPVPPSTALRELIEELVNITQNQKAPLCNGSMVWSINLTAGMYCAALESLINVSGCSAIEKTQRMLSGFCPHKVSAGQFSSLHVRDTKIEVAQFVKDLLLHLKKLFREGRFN
T2 sequence (P35225 other isoform, or with tags, fused parts or gaps limits assumed): as the sequence (P35225 other isoform, or with tags, fused parts or gaps) above
T3 sequence (chain, as listed by the source, chain 1 of 2): as the sequence (P35225 other isoform, or with tags, fused parts or gaps) above
T3 sequence (Q14627 27-380, chain 2 of 2): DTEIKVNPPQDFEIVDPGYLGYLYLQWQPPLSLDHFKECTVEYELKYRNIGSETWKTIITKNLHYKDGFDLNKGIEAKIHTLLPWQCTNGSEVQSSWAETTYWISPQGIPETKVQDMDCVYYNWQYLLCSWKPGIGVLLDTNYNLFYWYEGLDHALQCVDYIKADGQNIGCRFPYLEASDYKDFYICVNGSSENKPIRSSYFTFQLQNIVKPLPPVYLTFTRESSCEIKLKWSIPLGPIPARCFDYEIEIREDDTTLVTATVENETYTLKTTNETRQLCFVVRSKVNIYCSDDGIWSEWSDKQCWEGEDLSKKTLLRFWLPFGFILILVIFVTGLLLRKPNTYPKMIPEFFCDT

B1: partially humanized mAb13.2 (h13.2v1) (antibody, human IgG1, kappa, V domains shown)
VH: EVKLVESGGGLVQPGGSLRLSCAASGFTFISYAMSWVRQAPGKGLEWVASISSGGNTYYPDSVKGRFTISRDNAKNSLYLQMNSLRAEDTAVYYCARLDGYYFGFAYWGQGTLVTVSS
VL: DIQLTQSPSSLSASVGDRVTITCKASESVDNYGKSLMHWYQQKPGKAPKLLIYRASNLESGVPSRFSGSGSRTDFTLTISSLQPEDFATYYCQQSNEDPWTFGGGTKVEIKR
notes: Human IgG1 mutated (L234A/G237A), human kappa; also called hu13.2 V1
In the case of B1, the binding result with recombinant human IL-13 [1] and in the assay with FLAG-human IL-13 [2] was “binds” each time.

B2: fully humanized mAb13.2 (h13.2v3) (antibody, human IgG1, kappa, V domains shown)
VH: B1 VH with K3Q, Q13K, A49S, L113T
VL: DIVLTQSPASLAVSPGQRATITCKASESVDNYGKSLMHWYQQKPGQPPKLLIYRASNLESGVPARFSGSGSGTDFTLTINPVEANDTANYYCQQSNEDPWTFGGGTKVEIKR
On to B2, for which the binding result with recombinant human IL-13 [1] is recorded as “binds”.

B3: fully humanized mAb13.2 (h13.2v2) (antibody, human IgG1, kappa, V domains shown)
VH: B1 VH with K3Q
VL: B1 VL with L4M, R72G
notes: Human IgG1 mutated (L234A/G237A), human kappa; also called hu13.2 V2; biotinylated h13.2v2
In the case of B3, in the assay with recombinant human IL-13 [3], the Ka is 9.3e+09 M⁻¹ and the dissociation constant (Kd) (commonly a measure of binding affinity in units of concentration) was found to be 0.11 nM. Further, the binding result in [4] is “binds”.

B4: murine monoclonal antibody mAb13.2 (antibody, V domains shown)
VH: EVKLVESGGGLVKPGGSLKLSCAASGFTFISYAMSWVRQTPEKRLEWVASISSGGNTYYPDSVKGRFTISRDNARNILYLQMSSLRSEDTAMYYCARLDGYYFGFAYWGQGTTVTVSS
VL: DIVLTQSPASLAVSLGQRATISCKASESVDNYGKSLMHWYQQKPGQSPKLLIYRASNLESGIPARFSGSGSRTDFTLTINPVEADDVATYYCQQSNEDPWTFGGGTKLEIK
notes: also called mouse mAb13.2; biotinylated mAb13.2
Turning to B4, the “IC50 (read off the curve), TF1 proliferation” value in the assay with recombinant human IL-13 [5] was roughly 0.3 nM. For the same molecule, in the assay with recombinant human IL-13 [6], the Ka is 2.1e+09 M⁻¹ and the Kd was found to be 0.47 nM. For the same molecule, in the assay with recombinant human IL-13 [7], the Ka is 4e+10 M⁻¹; the Kd came out at 0.025 nM; the off-rate constant (koff) (as a rule, the rate constant with which the complex falls apart) stood at 2.7e-06 s⁻¹; the on-rate constant (kon) – broadly, the rate constant with which the complex forms – is 110000 M⁻¹ s⁻¹. In addition, the “IC50 (read off the curve)” value with FLAG-human IL-13 [8] was roughly 1 nM. For the same molecule, the binding result in the assay with recombinant murine IL-13 was “no binding (tested: about 3000 ng/ml)”.

B5: chimeric mAb13.2 antibody (ch13.2) (antibody, human IgG1, kappa, V domains shown)
VH: B4 VH
VL: B2 VL with P15L, T22S, P47S, V62I, G72R, N85D, T87V, N89T, V108L
As for B5, the “IC50 (read off the curve)” value in the assay with FLAG-human IL-13 [8] is roughly 1 nM.
